Experimental data taken from patent US20230165981A1, “[161Tb]-BASED RADIOPEPTIDES” (priority 2021, published 2023).
Values joined by “and” are separate entries in the source; they are usually repeats but may differ in a detail not shown here. Identical values can stand only once. Like-named read-outs stand apart in the source and are kept apart here. Starred links: 1 amine or outer side, 2 acyl side, 3 side chain; linkers in the order of their positions; H or OH if unused. Positions of bridges follow the written chain, without caps; N, C: chain ends. Non-standard residues stand in square brackets, D forms with d. Residues, ends and D or L forms follow the SMILES beside them. *: point of attachment. DOTA = O=C(O)CN1CCN(CC(=O)O)CCN(CC(=O)*)CCN(CC(=O)O)CC1; X1 = NC(=O)Nc1ccc(CC(N[*:1])C(=O)[*:2])cc1; Phe(4-Cl) = N[CH](Cc1ccc(Cl)cc1)C(=O)O

Legend:
[1] = n-octanol/PBS distribution coefficient (logD), shake-flask method; type: physicochemical; conditions: n-octanol/PBS pH 7.4
Method: An aliquot of the radiolabeled peptide (0.5 MBq, 25 µL) was added to a mixture of 1475 µL PBS pH 7.4 and 1500 µL n-octanol. The respective tubes were vortexed for 60 sec and centrifuged for 6 min at 2500 rpm followed by the measurement of the activity concentration in a defined volume of each layer using a γ-counter (Perkin Elmer, Wallac Wizard 1480). The logD values were calculated as the logarithm of the ratio of counts per minute (cpm) measured in the n-octanol phase relative to the cpm measured in the PBS pH 7.4 phase. The experiments were performed three times with five replicates for each radiopeptide and the logD value was expressed as the average ± standard deviation (SD) of the values obtained in each experiment. […] A p value <0.05 was considered statistically significant.

AR42J tumors = test: Preclinical therapy study in AR42J tumor-bearing mice; type: in vivo
[2] = Assessment of early side effects in therapy mice; conditions: endpoint of therapy
Method: Early side effects were assessed based on the RBW of each mouse which was monitored every second day. When an endpoint was reached or at the end of the study (after 49 days), relevant organs and tissues were collected, weighed and put into relation to the brain mass and body weight of the respective mouse. This allowed comparison of organ-to-brain and organ-to-body mass weight ratios. In addition, blood plasma parameters from blood collected immediately after euthanasia were measured.
RBW, organ mass and mass ratios at the endpoint: The RBW was monitored every second day. Mice were euthanized when a predefined endpoint criterion was reached or when the study was terminated at Day 49. RBWs, organ masses, organ mass ratios (kidney-to-brain, liver-to-brain and spleen-to-brain) and organ mass to body weight ratios (kidney-to-body mass, liver-to-body mass and spleen-to-body mass) were analyzed for significance using a one-way ANOVA test with a Tukey’s multiple comparisons post-test. A p-value of <0.05 was considered as statistically significant.
Blood plasma chemistry: Immediately before euthanasia of the mice that reached the endpoint, blood was sampled from the retrobulbar vein. The values of creatinine (CRE), blood urea nitrogen (BUN), alkaline phosphatase (ALP), total bilirubin (TBIL) and albumin (ALB) were determined in the plasma after centrifugation of the blood using a dry chemistry analyzer (DRI-CHEM 4000i, FUJIFILM, Japan). The average blood plasma parameters of each group were analyzed for significance using a one-way ANOVA test with a Tukey’s multiple comparisons post-test. A p-value of <0.05 was considered as statistically significant.

[3] = system: metastatic functional neuroendocrine neoplasm of the pancreatic tail; test: First-in-man scintigraphy and SPECT/CT; type: in vivo, human; conditions: 0.5-113 hours p.i., patient
Method: A patient with a metastatic functional neuroendocrine neoplasm of the pancreatic tail was injected with 161TbDOTATOC. Scintigraphy and SPECT were recorded. […] FIGS. 18A, 18B, 18C, and 18D show whole-body images obtained at 0.5 hours post-injection (p.i.) (FIG. 18A), 2.5 hours p.i. (FIG. 18B), 20 hours p.i. (FIG. 18C), and 113 hours p.i. (FIG. 18D) of 161Tb-DOTATOC. Early blood-pool activity was noticed in the heart (H) and blood vessels (BV).
FIGS. 19A, 19B, and 19C show SPECT/CT images obtained at 19 hours after injection of 161Tb-DOTATOC. (FIG. 19A) Coronal section, (FIG. 19B) sagittal section, and (FIG. 19C) transverse section.

AR42J tumor-bearing mice [4] = conditions: 0.2 nmol/mouse
Method: All applicable international, national, and/or institutional guidelines for the care and use of animals were followed. In particular, all animal experiments were carried out according to the guidelines of Swiss Regulations for Animal Welfare. The preclinical studies were ethically approved by the Cantonal Committee of Animal Experimentation and permitted by the responsible cantonal authorities (license N° 75721 and 79692). Five-week-old female, athymic nude mice (CD-1 Foxn-⅟nu) were obtained from Charles River Laboratories (Sulzfeld, Germany). Mice were subcutaneously inoculated with AR42J tumor cells (5 × 10^6 cells in 100 µL PBS) for SPECT/CT imaging, biodistribution and therapy studies. The SPECT/CT and biodistribution studies were performed 10-14 days after tumor cell inoculation when the tumor size reached a volume of ~250 mm^3.
The mice were sacrificed at 0.5 h, 2 h, 4 h, 24 h and 48 h p.i, selected tissues and organs were collected, weighed, and the accumulated activity was counted using a γ-counter (Perkin Elmer). The decay-corrected data were listed as % IA/g. The data were analyzed for significance using a two-way ANOVA with Tukey’s multiple comparison post-tests. A p-value of <0.05 was considered statistically significant.

AR42J tumor-bearing mice [5] = test: Biodistribution: optimum injected molar amount; conditions: 2 h p.i.
AR42J tumor-bearing mice [6] = conditions: 24 h p.i., 1 nmol/mouse
Method: (§1) Five-week-old female, athymic nude mice (CD-1 Foxn-⅟nu) were obtained from Charles River Laboratories (Sulzfeld, Germany). Mice were subcutaneously inoculated with AR42J tumor cells (5 × 10^6 cells in 100 µL PBS) for SPECT/CT imaging, biodistribution and therapy studies. The SPECT/CT and biodistribution studies were performed 10-14 days after tumor cell inoculation when the tumor size reached a volume of ~250 mm^3.
(§2) The mice were sacrificed at 2 h and 24 h post injection (p.i.). Selected tissues and organs were collected, weighed, and the accumulated activity was counted in a γ-counter. The decay-corrected data were listed as the percentage of the injected activity per gram of tissue mass (% IA/g). The data were analyzed for significance using a two-way ANOVA with Tukey’s multiple comparison post-tests. A p-value of <0.05 was considered statistically significant.

in vivo = conditions: female, athymic nude (CD-1 Foxn-1nu), mouse, iv, 1 nmol/mouse, total radioactivity
Method: as §1, §2

C[C@@H](O)[C@@H]1NC(=O)[C@H](CCCCN)NC(=O)[C@@H](Cc2c[nH]c3ccccc23)NC(=O)[C@H](Cc2ccc(O)cc2)NC(=O)[C@@H](NC(=O)[C@@H](Cc2ccccc2)NC(=O)CN2CCN(CC(=O)O)CCN(CC(=O)O)CCN(CC(=O)O)CC2)CSSC[C@@H](C(=O)N[C@H](CO)[C@@H](C)O)NC1=O [[^161Tb]Tb-DOTATOC] [metal not drawn]
LogD [1]: -3.3 ± 0.2 | Median survival (AR42J tumors; 2 x 10 MBq, 0.2 nmol): 21 days | tumor growth delay (AR42J tumors; 2 x 10 MBq, 0.2 nmol, Day 0 and 7): 9.0 ± 5.5 days | Time frame of euthanasia (AR42J tumors; 2 x 10 MBq, 0.2 nmol, end of study = 49 days): 20 to 26 days | tumor doubling time (AR42J tumors; regrowth phase): 3.4 ± 3.6 days | ALB (albumin) [2]: 23 ± 2 g/L | ALP (alkaline phosphatase) [2]: 76 ± 21 U/L | BUN (blood urea nitrogen) [2]: 5.8 ± 1.0 mmol/L | CRE (plasma creatinine) [2]: <18 (n=6) µmol/L | TBIL (total bilirubin) [2]: < 3 µmol/L and 4 ± 1 µmol/L | uptake in whole-body scintigraphy [3]: Pathological uptake was demonstrated in the bilobar liver | Biodistribution: AR42J Tumor (AR42J tumor-bearing mice [4]; 0.5 h p.i.): 15 ± 2 % IA/g | Biodistribution: AR42J Tumor (AR42J tumor-bearing mice [4]; 2 h p.i.): 14 ± 1 % IA/g | Biodistribution: Adrenals (AR42J tumor-bearing mice [4]; 2 h p.i.): 0.43 ± 0.11 % IA/g | Biodistribution: Femur (AR42J tumor-bearing mice [4]; 2 h p.i.): 0.12 ± 0.03 % IA/g | Biodistribution: Heart (AR42J tumor-bearing mice [4]; 2 h p.i.): ≤0.10 % IA/g | Biodistribution: Intestines (AR42J tumor-bearing mice [4]; 2 h p.i.): 0.24 ± 0.01 % IA/g | Biodistribution: Kidneys (AR42J tumor-bearing mice [4]; 2 h p.i.): 9.4 ± 0.4 % IA/g | Biodistribution: Liver (AR42J tumor-bearing mice [4]; 2 h p.i.): 0.19 ± 0.03 % IA/g | Biodistribution: Lung (AR42J tumor-bearing mice [4]; 2 h p.i.): 0.47 ± 0.05 % IA/g | Biodistribution: Muscle (AR42J tumor-bearing mice [4]; 2 h p.i.): ≤0.10 % IA/g | Biodistribution: Pancreas (AR42J tumor-bearing mice [4]; 2 h p.i.): 1.5 ± 0.2 % IA/g | Biodistribution: Spleen (AR42J tumor-bearing mice [4]; 2 h p.i.): 0.18 ± 0.02 % IA/g | Tu-to-adr (tumor-to-adrenals) (AR42J tumor-bearing mice [5]; 0.040 nmol/mouse): 24 ± 1 | Tu-to-blood (AR42J tumor-bearing mice [5]; 0.040 nmol/mouse): 187 ± 12 | Tu-to-kidney (AR42J tumor-bearing mice [5]; 0.040 nmol/mouse): 1.8 ± 0.2 | Tu-to-liver (AR42J tumor-bearing mice [5]; 0.040 nmol/mouse): 73 ± 3 and 74 ± 3 | Tu-to-adr (tumor-to-adrenals) (AR42J tumor-bearing mice [5]; 0.20 nmol/mouse): 34 ± 7 | Tu-to-blood (AR42J tumor-bearing mice [5]; 0.20 nmol/mouse): 221 ± 56 | Tu-to-kidney (AR42J tumor-bearing mice [5]; 0.20 nmol/mouse): 1.5 ± 0.1 | Tu-to-liver (AR42J tumor-bearing mice [5]; 0.20 nmol/mouse): 76 ± 14 | Biodistribution: AR42J Tumor (AR42J tumor-bearing mice [5]; 1.0 nmol/mouse): 8.2 ± 0.2 % IA/g | Biodistribution: Adrenals (AR42J tumor-bearing mice [5]; 1.0 nmol/mouse): 0.25 ± 0.06 % IA/g | Biodistribution: Blood (AR42J tumor-bearing mice [5]; 1.0 nmol/mouse): ≤0.10 % IA/g | Biodistribution: Femur (AR42J tumor-bearing mice [5]; 1.0 nmol/mouse): ≤0.10 % IA/g | Biodistribution: Heart (AR42J tumor-bearing mice [5]; 1.0 nmol/mouse): ≤0.10 % IA/g | Biodistribution: Intestines (AR42J tumor-bearing mice [5]; 1.0 nmol/mouse): 0.21 ± 0.13 % IA/g | Biodistribution: Kidneys (AR42J tumor-bearing mice [5]; 1.0 nmol/mouse): 9.9 ± 1.3 % IA/g | Biodistribution: Liver (AR42J tumor-bearing mice [5]; 1.0 nmol/mouse): 0.17 ± 0.01 % IA/g | Biodistribution: Lung (AR42J tumor-bearing mice [5]; 1.0 nmol/mouse): 0.27 ± 0.03 % IA/g | Biodistribution: Muscle (AR42J tumor-bearing mice [5]; 1.0 nmol/mouse): ≤0.10 % IA/g | Biodistribution: Pancreas (AR42J tumor-bearing mice [5]; 1.0 nmol/mouse): 0.71 ± 0.07 % IA/g | Biodistribution: Spleen (AR42J tumor-bearing mice [5]; 1.0 nmol/mouse): 0.11 ± 0.02 % IA/g | Biodistribution: Stomach (AR42J tumor-bearing mice [5]; 1.0 nmol/mouse): 0.74 ± 0.38 % IA/g

CC(O)C1NC(=O)C(CCCCN)NC(=O)C(Cc2ccc(NC(N)=O)cc2)NC(=O)C(Cc2ccc(O)cc2)NC(=O)C(NC(=O)C(Cc2ccc(Cl)cc2)NC(=O)CN2CCN(CC(=O)O)CCN(CC(=O)O)CCN(CC(=O)O)CC2)CSSCC(C(=O)NC(Cc2ccc(O)cc2)C(N)=O)NC1=O (centres unmarked) [metal not drawn] ({DOTA}-[Phe(4-Cl)]CY[X1]KTCY-NH2; disulfide 2-7; configuration not given here)
ALB (albumin) [2]: 22 ± 1 g/L | ALP (alkaline phosphatase) [2]: 65 ± 15 U/L | BUN (blood urea nitrogen) [2]: 9.1 ± 1.5 mmol/L | CRE (plasma creatinine) [2]: <18 (n=5) 18 (n=1) µmol/L | TBIL (total bilirubin) [2]: <3 (n=5) 3 (n=1) µmol/L | Tumor-to-liver (AR42J tumor-bearing mice [6]): 63 ± 18 | Biodistribution: Muscle (AR42J tumor-bearing mice [4]; 2 h p.i.): ≤0.10 % IA/g | Biodistribution: Spleen (AR42J tumor-bearing mice [4]; 2 h p.i.): 0.41 ± 0.08 % IA/g | tissue uptake at 2 h (in vivo; femur): 0.2 ± 0.05 %ID/g | tissue uptake at 2 h (in vivo; kidneys): 12 ± 2 %ID/g | tissue uptake at 2 h (in vivo; lung): 1 ± 0.2 %ID/g | tissue uptake at 24 h (in vivo; spleen): 0.13 ± 0.03 %ID/g
